Data published in patent US11911507B2, “Liposomes comprising polymer-conjugated lipids and related uses” (Yissum Research Development Company of the Hebrew …, priority 2011, dated 2024).

Legend:
[1] = Size stability of liposomes with different polymer-conjugated lipids on heated incubation, dynamic light scattering; settings: DMPC liposomes, 55° C., day 1 vs day 17, versus control nanoliposomes
Experimental: FIG. 3: Size stability of liposomes with different polymer-conjugated lipids (Po-Ls): Liposomes with or without the indicated Po-L were incubated at 55° C. for 17 days, and the change in their size was monitored using dynamic light scattering. […] DMPC=dimyristoyl phosphatidyl-choline; HyPE=HyPE=Hyaluronic acid (HA)-conjugated Phosphatidyl-ethanolamine (PE); Dex (5)-PE=Dextran (MW 5K)-conjugated PE; Dex(40)=Dextran (MW 40K)-conjugated PE; Heta-PE=Hetastarch (hydroxyethylstarch)-conjugated PE; Hem-PE=Hemaccel (Polygeline)-conjugated PE.
The size of the mixed nano-liposomes was determined by dynamic light scattering.

[2] = Retention of liposome-encapsulated inulin fluorescein in rat circulation after tail vein injection; assay type: in vivo; settings: rats, blood samples 5 minutes and 28 hours, versus control nanoliposomes (FIG. 6)
Experimental: FIG. 6: Effect of Pol-PLI on stability of liposomes in rat blood (in vivo): InFl-containing Liposomes were injected to the tail vein of rats, and the retention of drug in the circulation was monitored for 28 hour, by determination of the drug level in blood samples taken 5 minutes and 28 hours after injection, and expressed as percent of the initial, injected InFl amount.

Substance: Haemaccel-Glutaryl-phosphatidyl-ethanolamine [Hem-PE]
- nanoliposome size stability (FIG. 3) [1]: more stable nanoliposome size than control nanoliposomes
- release of encapsulated drug from nanoliposomes, in vivo [2]: markedly slowed down the drug release
